This is an account of results in patent US20150086555A1.

The Kd is a measure of binding affinity in units of concentration. What is called koff is the first-order rate constant of dissociation. The term kon denotes a measure of how fast the partners come together.

Holding throughout (conditions): remark: other sources report otherwise
Assay [1] deals with recombinant trimeric HA of H1N1 A/California/04/09 (Influenza A virus A/California/04/2009 (H1N1)).
For assay [2], the target named is recombinant soluble homotrimeric HA of A/Japan/305/57 (H2N2) (Influenza A virus A/Japan/305/1957(H2N2)). Briefly: HA microarray, BCC supernatant.
Assay [3] concerns the target recombinant soluble homotrimeric HA of A/northern shoveler/California/HKWF115/07 (H6) (Influenza A virus A/northern shoveler/California/HKWF115/2007(H6N1)). Briefly: HA microarray, BCC supernatant.
In assay [4] the target is recombinant soluble homotrimeric HA of A/Indonesia/5/05 (H5N1) (Influenza A virus A/Indonesia/5/2005(H5N1)). Put plainly: HA microarray, BCC supernatant.
The target in assay [5] is recombinant soluble homotrimeric HA of A/Egypt/3300-NAMRU3/08 (H5N1) (Influenza A virus A/Egypt/3300-NAMRU3/2008(H5N1)). Briefly: HA microarray, BCC supernatant.
Assay [6] deals with recombinant soluble homotrimeric HA of A/Anhui/1/05 (H5N1) (Influenza A virus A/Anhui/1/2005(H5N1)). Put plainly: HA microarray, BCC supernatant.
The target in assay [7] is recombinant soluble homotrimeric HA of A/chicken/Vietnam/NCVD-016/08 (H5N1) (Influenza A virus A/chicken/Vietnam/NCVD-016/2008(H5N1)). Put plainly: HA microarray, BCC supernatant.
For assay [8], the target named is recombinant soluble homotrimeric HA of A/Netherlands/219/03 (H7N7) (Influenza A virus A/Netherlands/219/03(H7N7)). Put plainly: HA microarray, BCC supernatant.
Assay [9] addresses recombinant soluble homotrimeric HA of A/Solomon Islands/3/06 (H1N1) (Influenza A virus A/Solomon Islands/3/2006(H1N1)). Briefly: HA microarray, BCC supernatant.
In assay [10] the target is recombinant soluble homotrimeric HA of A/Hong Kong/2108/03 (H9N2) (Influenza A virus A/HK/2108/2003(H9N2)). Briefly: HA microarray, BCC supernatant.

B1: Fab fragment of TCN-523 (5248_A17) (Fab, V domains shown)
VH: QVQLVQSGAEVKKPGSSVKVSCKASGGSFSNYAFSWVRQAPGQGLEWMGGTIPLLGTTNYAQKFQGRVTISADQFTSTAYMELGSLRSEDTAVYYCTRRKMTTAFDSWGQGTLVTVSS
VL: QPVLTQPPSASASLGASVTLTCTLSSAYSNYKVDWYQQRPGKGPRFVMRVGTGGIVGSKGDGIPDRFSVLGSGLNRYLTIKNIQEEDESDYHCGADHGSGSNFVSPYVFGGGTKLTVL
For B1, in assay [1], the Kd came to 0.09 nM, the off-rate (koff) turned out to be 5.1e-05 s⁻¹ and the kon is 540000 M⁻¹ s⁻¹.

B2: TCN-521 (3280_D18) (antibody, V domains shown)
VH: EVQLVQSGGGLVQPGGSLRLACVVSGFTVTSNYITWVRQAPGKGLEWVSVIYSHGRAYYSASVNGRFTISRHTSKNTVYLEMNSLRPEDTAVYYCAGGGLVGGYDEYFFDYWGQGTLATVSS
VL: ETVLTQSPGTLSLTPGERATLSCRVGQSVSGSHLAWYQQKPGQAPRLLIYGASSRATGIPDRFGGSVSGTDFTLTISRLEPEDSAVYYCQQYGDSRYTFGQGTKLEIK
In the case of B2, the Trimeric HA Binding: RLU came to 6730 RLU in assay [2]; 48000 RLU in assay [3]; 31500 RLU in assay [4]; 47900 RLU in assay [5]; 487 RLU in assay [6]; 32400 RLU in assay [7]. Moreover, the Trimeric HA Binding: RLU worked out at 2500 RLU in assay [8], 39600 RLU in assay [9] and 93 RLU in assay [10].

B3: Fab fragment of TCN-534 (5249_B02) (Fab, V domains shown)
VH: QVQLVQSGAEVKKPGSSVKVSCRESGGTFNGYTITWVRQAPGQGLEWMGGIIPMMGTVNYAQKLQGRVTITTDYFTKTAYMDLNNLRSEDTAMYYCVKIRYTGQQLLWGQGTLVTVSS
VL: DIQMTQSPSTLSASIGDRVTITCRASQSIASWLAWYQQKPGKAPKLLIYEAVNLESGVPSRFSGSGSGTDFTLTISSLQPDDFATYFCQHYGTISQTFGGGTKVEIK
Take B3: in assay [1], the equilibrium dissociation constant (Kd) turned out to be 0.104 nM, the koff turned out to be 5.96e-05 s⁻¹ and the association rate constant (kon) worked out at 573000 M⁻¹ s⁻¹.

B4: Fab fragment of TCN-535 (5246_P19) (Fab, V domains shown)
VH: QVQLVQSGSEVKKPGTSVKVSCTASGSVFTNYGISWVRQAPGQGLEWMGGIIPLFGAAKYAQKFQGRVTITADESTKTVYMELSRLTSKDTAIYFCAKAPRVYEYYFDQWGQGTPVTVSS
VL: EIVLTQSPGTLSLSPGERATLSCRASQSVSSSQLAWYQQKPGQAPRLIIYGASTRATGIPDRFSGSGSGTDFTLTIGRLEPEDFAVFFCQQYSTSPPTFGQGTKVDFK
In the case of B4, in assay [1], the Kd stood at 0.165 nM, the koff was determined as 0.000163 s⁻¹ and the kon amounted to 987000 M⁻¹ s⁻¹.

B5: Fab fragment of TCN-522 (3212_I12) (Fab, V domains shown)
VH: QVQLQQWGAGLLKPSETLSLTCTVSGGSLTDYSWNWIRQPPGKGLEWIGDTLHNGYTNYNPSLRGRVSISIDTSKNQVSLRLTSVTAADTALYYCARGSGGYGGFDYFGKLRTWDFWGQGTLVTVSS
VL: DIQLTQSPSSLSASVGDRVTITCRASQGIRNDLGWYQQKPGNAPKRLIFGASSLQSGVPSRFSGSGSGTEFTLTISSLQPEDFATYYCLQHNSYPYTFGQGTKLEIK
Take B5: in [1], the Kd worked out at 0.55 nM, the koff worked out at 3.8e-05 s⁻¹ and the kon was determined as 69800 M⁻¹ s⁻¹.

B6: Fab fragment of TCN-530 (5248_H10a) (Fab, V domains shown)
VH: QVQLVQSGAEVRKPGSSVKVSCKASGGPFMSYAIGWVRQAPGQGLEWMGGINPVFGRPHYAQKFQGRVTIATDDSTKTSYMELSSLTSEDTGMYYCASRYSRSSPGTFESWGQGTLVTVSS
VL: EIVMTQFPATLSVSPGERVTLSCRASQSVSNNLAWYQQKPGQPPRLLIYDASTRATGVPAKFSGTGSGTEFTLSISSLQSEDFAVYYCQQYHNWPPSYSFGLGTKLEIK
As to B6, in assay [1], the Kd came to 0.562 nM, the dissociation rate constant (koff) came out at 0.000287 s⁻¹ and the on-rate constant (kon) was found to be 511000 M⁻¹ s⁻¹.
